# System: Escherichia coli TOP10
# Assay: shrunken log2 fold change of peptide-encoding DNA abundance (4.5 h post-induction vs induction); higher = less antimicrobial activity (less host growth inhibition)
# Settings: time post-induction: 4.5 h; library: site-saturation at positions 5, 18, 19, 20
# 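Note: peptides expressed intracellularly from a pBAD plasmid library in pooled LB shake-flask culture, induced with 0.3% L-arabinose, DNA abundance read by NGS, three biological replicates, DESeq2 with apeglm shrinkage.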
row,Sequence,shrunken log2 fold change
1,RRIRQRPPRLPRPRPRPTGPPRP,0.22
2,RRIRWRPPRLPRPRPRPTWHPRP,0.0819
3,RRIRFRPPRLPRPRPRPMNSPRP,-0.325
4,RRIRFRPPRLPRPRPRPEVPPRP,-0.0248
5,RRIRPRPPRLPRPRPRPGKSPRP,-0.208
6,RRIRIRPPRLPRPRPRPNCLPRP,-0.602
7,RRIRSRPPRLPRPRPRPRDCPRP,0.686
8,RRIRLRPPRLPRPRPRPVCCPRP,-0.185
9,RRIRFRPPRLPRPRPRPCLAPRP,-0.245
10,RRIRIRPPRLPRPRPRPFHVPRP,-0.121
11,RRIRARPPRLPRPRPRPYENPRP,-0.0975
12,RRIRFRPPRLPRPRPRPHDMPRP,-0.292
13,RRIRVRPPRLPRPRPRPEFIPRP,-0.176
14,RRIRYRPPRLPRPRPRPWWAPRP,-0.19
15,RRIRMRPPRLPRPRPRPNDNPRP,0.504
16,RRIRLRPPRLPRPRPRPAARPRP,0.453
17,RRIRSRPPRLPRPRPRPWLAPRP,0.166
18,RRIRWRPPRLPRPRPRPMNDPRP,-0.0845
19,RRIRCRPPRLPRPRPRPKYMPRP,-0.498
20,RRIRFRPPRLPRPRPRPIAVPRP,-0.116
21,RRIRDRPPRLPRPRPRPPHHPRP,-0.0964
22,RRIRKRPPRLPRPRPRPPNAPRP,0.711
23,RRIRNRPPRLPRPRPRPCEPPRP,-0.183
24,RRIRMRPPRLPRPRPRPRIRPRP,0.79
25,RRIRVRPPRLPRPRPRPAAPPRP,0.452

row,Sequence,shrunken log2 fold change
1,RRIRYRPPRLPRPRPRPSNFPRP,-0.368
2,RRIRWRPPRLPRPRPRPPMLPRP,0.0923
3,RRIRERPPRLPRPRPRPNCQPRP,-0.0295
4,RRIRSRPPRLPRPRPRPEFNPRP,0.24
5,RRIRSRPPRLPRPRPRPEVFPRP,0.0779
6,RRIRHRPPRLPRPRPRPQGIPRP,0.0372
7,RRIRNRPPRLPRPRPRPTIQPRP,-0.213
8,RRIRNRPPRLPRPRPRPRVMPRP,0.0236
9,RRIRDRPPRLPRPRPRPPPLPRP,0.586
10,RRIRARPPRLPRPRPRPVEPPRP,0.297
11,RRIRHRPPRLPRPRPRPCGKPRP,-0.00804
12,RRIRPRPPRLPRPRPRPTQSPRP,0.436
13,RRIRIRPPRLPRPRPRPWTHPRP,-0.0959
14,RRIRKRPPRLPRPRPRPYNYPRP,-0.898
15,RRIRERPPRLPRPRPRPNSCPRP,-0.128
16,RRIRMRPPRLPRPRPRPAVYPRP,0.265
17,RRIRCRPPRLPRPRPRPEKEPRP,-0.0494
18,RRIRNRPPRLPRPRPRPPQQPRP,0.294
19,RRIRGRPPRLPRPRPRPCNRPRP,0.212
20,RRIRRRPPRLPRPRPRPENEPRP,0.119
21,RRIRLRPPRLPRPRPRPGMFPRP,-0.322
22,RRIRQRPPRLPRPRPRPGPFPRP,0.0672
23,RRIRGRPPRLPRPRPRPFNIPRP,-0.199
24,RRIRMRPPRLPRPRPRPHWIPRP,-0.0869
25,RRIRSRPPRLPRPRPRPQKYPRP,-0.428

row,Sequence,shrunken log2 fold change
1,RRIRVRPPRLPRPRPRPRPGPRP,0.627
2,RRIRYRPPRLPRPRPRPCNQPRP,-0.224
3,RRIRRRPPRLPRPRPRPFRLPRP,-0.143
4,RRIRQRPPRLPRPRPRPLLMPRP,0.181
5,RRIRNRPPRLPRPRPRPNHYPRP,-0.885
6,RRIRKRPPRLPRPRPRPGIHPRP,0.149
7,RRIRARPPRLPRPRPRPCKVPRP,-0.164
8,RRIRWRPPRLPRPRPRPNRSPRP,-0.0777
9,RRIRARPPRLPRPRPRPALIPRP,0.379
10,RRIRTRPPRLPRPRPRPRHQPRP,-0.154
11,RRIRDRPPRLPRPRPRPLWHPRP,0.0123
12,RRIRFRPPRLPRPRPRPMAAPRP,-0.0736
13,RRIRNRPPRLPRPRPRPWTDPRP,0.0246
14,RRIRDRPPRLPRPRPRPPAFPRP,0.192
15,RRIRWRPPRLPRPRPRPHAEPRP,0.0375
16,RRIRTRPPRLPRPRPRPHPIPRP,-0.165
17,RRIRTRPPRLPRPRPRPETIPRP,-0.0605
18,RRIRWRPPRLPRPRPRPFSFPRP,-0.067
19,RRIRDRPPRLPRPRPRPCAEPRP,0.508
20,RRIRERPPRLPRPRPRPVWDPRP,0.00068
21,RRIRHRPPRLPRPRPRPQWEPRP,-0.0718
22,RRIRDRPPRLPRPRPRPRNCPRP,-0.152
23,RRIRIRPPRLPRPRPRPTWCPRP,0.0363
24,RRIRARPPRLPRPRPRPIMMPRP,-0.245
25,RRIRARPPRLPRPRPRPELKPRP,0.488
